This is an account of results in PMC12698695 (Nature Communications, 2025).

This series deals with the molecule itself. Briefly: cryo-EM structure.

B1: human PANX1 W74A mutant (natural protein)
chain: MAIAQLATEYVFSDFLLKEPTEPKFKGLRLELAVDKMVTCIAVGLPLLLISLAFAQEISIGTQISCFSPSSFSARQAAFVDSYCWAAVQQKNSLQSESGNLPLWLHKFFPYILLLFAILLYLPPLFWRFAAAPHICSDLKFIMEELDKVYNRAIKAAKSARDLDMRDGACSVPGVTENLGQSLWEVSESHFKYPIVEQYLKTKKNSNNLIIKYISCRLLTLIIILLACIYLGYYFSLSSLSDEFVCSIKSGILRNDSTVPDQFQCKLIAVGIFQLLSVINLVVYVLLAPVVVYTLFVPFRQKTDVLKVYEILPTFDVLHFKSEGYNDLSLYNLFLEENISEVKSYKCLKVLENIKSSGQGIDPMLLLTNLGMIKMDVVDGKTPMSAEMREEQGNQTAELQGMNIDSETKANNGEKNARQRLLDSSC
As for B1, the binding result is recorded as “binds”.
